pKd: −log10 of the molar value.
Legend:
Conditions in all cases: ELISA: 20 mM Tris-HCl pH 7.5, 100 mM NaCl, room temperature, 1 h (washes with 0.02% Tween-20); SPR conditions not in the material
[1] = tested on: BV04-01 scFv (SCA04-01) (mouse (lupus-prone)); assay: ELISA
[2] = tested on: BV04-01 scFv VH A23P (mouse (lupus-prone)); assay: ELISA
MRL-4 scFv (mouse) [3] = assay: ELISA
[4] = tested on: MRL-4 scFv VH P23A (mouse); assay: ELISA
[5] = tested on: BV04-01 scFv (SCA04-01) (mouse (lupus-prone)); assay: SPR
[6] = tested on: BV04-01 scFv VH A23P (mouse (lupus-prone)); assay: SPR
MRL-4 scFv (mouse) [7] = assay: SPR
[8] = tested on: MRL-4 scFv VH P23A (mouse); assay: SPR

Substance | binding signal [1] [%] | binding signal (% of BV04-01 wild type) [2] | binding signal (MRL-4 scFv (mouse) [3]) [%] | binding signal (% of MRL-4 wild type) [4] | pKd [5] | pKd [6] | pKd (MRL-4 scFv (mouse) [7]) | pKd [8]
254-bp PCR fragment (ELISA) | 100 | 1.2 | 100 | 4.6 |  |  |  | 
double-stranded DNA fragments (SPR ligand) |  |  |  |  | 8.74 | 6.54 | 7.77 | 5.07

— PMC3502752
